Patent US20130266567A1 (published 2013)
“And” between values parts separate entries of the source, which are not always exact repeats. Identical values can stand only once.

Assays:
[1] = target: T1, Human serum albumin (human, UniProt P02768 25-609); assay: SPR, BIAcore 3000, serum albumin coupled to CM5 chip;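 also: Cross-reactivity of anti-serum albumin domain antibodies measured against human, cynomolgus monkey, rat and mouse serum albumin, binding kinetics giving Kd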
T1 construct: coupled to CM5 BIAcore chip; also called human SA; HSA
Procedure: (§1) Cross-reactivity of the AlbudAbs™ (ie, anti-serum albumin dAbs) was determined against human, Cynomolgus monkey (cyno), rat and mouse serum albumin using surface plasmon resonance (SPR). In this case, Biacore™ was used. Biacore™ 2000/3000 was used for the supernatant screens and determination of binding kinetic all of dAbs described herein. Biacore™ T100 was used for the determination of cross-reactivity of lead Vk and VH Albudabs to a wider range of species' SAs (12 in total). Protein samples were run on the T100 BIAcore as described for the BIAcore2000/3000 experiments. […] Where appropriate, a kinetic Langmuir 1:1 fitting model was used.

[2] = target: T2, Cynomolgus serum albumin (Cynomolgus monkey, UniProt A2V9Z4 25-608); assay: as above
T2 construct: mature; purified native protein; coupled to CM5 BIAcore chip; also called cyno SA; CSA
Procedure: as §1

[3] = target: T3, Rat serum albumin (rat, UniProt P02770 25-608); assay: as above
T3 construct: coupled to CM5 BIAcore chip; also called rat SA; RSA
Procedure: as §1

[4] = target: T4, Mouse serum albumin (mouse, UniProt P07724 25-608); assay: as above
T4 construct: mature; bought purified protein; coupled to CM5 BIAcore chip; also called mouse SA; MSA
Procedure: as §1

[5] = target: T1, Human serum albumin; assay: SPR, BIAcore 3000, serum albumin coupled to CM5 chip; first of two independent measurements on different protein batches
Procedure: as §1

[6] = target: T1, Human serum albumin; assay: SPR, BIAcore 3000, serum albumin coupled to CM5 chip; second of two independent measurements on different protein batches
[7] = target: T3, Rat serum albumin; assay: SPR, BIAcore 3000, serum albumin coupled to CM5 chip; last of the independent measurements on different protein batches
[8] = target: T5, Rabbit serum albumin (rabbit, UniProt P49065 25-608); assay: SPR, BIAcore T100
Procedure: as §1

[9] = target: T1, Human serum albumin; assay: SPR, BIAcore T100, equilibrium KD
Procedure: as §1

[10] = target: T2, Cynomolgus serum albumin; assay: SPR, BIAcore T100, equilibrium KD
Procedure: as §1

[11] = target: T3, Rat serum albumin; assay: SPR, BIAcore T100, equilibrium KD
Procedure: as §1

[12] = target: T4, Mouse serum albumin; assay: SPR, BIAcore T100, equilibrium KD
Procedure: as §1

[13] = target: Marmoset serum albumin (marmoset); assay: SPR, BIAcore T100, equilibrium KD
Procedure: as §1

[14] = target: Dog serum albumin (dog, UniProt P49822 25-608); assay: SPR, BIAcore T100, equilibrium KD
Procedure: as §1

[15] = target: Ferret serum albumin (ferret); assay: SPR, BIAcore T100, equilibrium KD
Procedure: as §1

[16] = target: Pig serum albumin (pig, UniProt P08835 25-607); assay: SPR, BIAcore T100, equilibrium KD
Procedure: as §1

[17] = target: Mini Pig serum albumin (mini pig); assay: SPR, BIAcore T100, equilibrium KD
Procedure: as §1

[18] = target: Sheep serum albumin (sheep, UniProt P14639 25-607); assay: SPR, BIAcore T100, equilibrium KD
Procedure: as §1

[19] = target: T5, Rabbit serum albumin; assay: SPR, BIAcore T100, equilibrium KD
Procedure: as §1

[20] = target: Guinea Pig serum albumin (guinea pig); assay: SPR, BIAcore T100, equilibrium KD
Procedure: as §1

[21] = target: T1, Human serum albumin; assay: SPR, BIAcore 3000, serum albumin coupled to CM5 chip; second of two independent measurements; marked with an unexplained caret
Procedure: as §1

B1: DOM7r-36-2 (VHH)
VHH: EVQLLESGGGLVQPGGSLRLSCAASGFTFNHYTMGWVRQAPGKGREWVSLIHPSGTVTYYADSVKGRFTISRDNSKNTLYLQMNSLRAEDTAVYYCAKWSSRAFDYWGQGTLVTVSS
notes: VH immunoglobulin single variable domain (dAb, AlbudAb), not a camelid VHH; tested with a myc tag; also called 7r36-2 (Parent); not shown: myc tag
- Kd [1]: 190 nM and 360 nM and 305 nM and 385 nM
- Kd [2]: 800 nM and 815 nM and 628 nM and 1500 nM
- Kd [3]: 467 nM and 330 nM and 244 nM and 229 nM

B2: DOM7r-36-100 (VHH)
VHH: EVQLLESGGGLVQPGGSLRLSCAASGFTFNHYTMGWVRQAPGKGREWVSLIHPSGTVTYYADSVKGRFTISRDNSKNTLYLQMNSLRAEDTAVYYCAKWERRTFDYWGQGTLVTVSS
notes: VH immunoglobulin single variable domain (dAb, AlbudAb), not a camelid VHH; tested with a myc tag; not shown: myc tag
- Kd [1]: 74 nM and 100 nM and 35 nM
- Kd [2]: 87 nM and 230 nM
- Kd [3]: 105 nM and 70 nM
- Kd [4]: 100 nM

B3: DOM7r-36-101 (VHH)
VHH: EVQLLESGGGLVQPGGSLRLSCAASGFTFNHYTMGWVRQAPGKGREWVSLIHPSGTVTYYADSVKGRFTISRDNSKNTLYLQMNSLRAEDTAVYYCAKWFLKSFDYWGQGTLVTVSS
notes: as for B2
- Kd [1]: 86 nM
- Kd [2]: 72 nM
- Kd [3]: 183 nM

B4: DOM7r-36-102 (VHH)
VHH: EVQLLESGGGLVQPGGSLRLSCAASGFTFNHYTMGWVRQAPGKGREWVSLIHPSGTVTYYADSVKGRFTISRDNSKNTLYLQMNSLRAEDTAVYYCAKWFYRNFDYWGQGTLVTVSS
notes: as for B2
- Kd [2]: 430 nM
- Kd [3]: 100 nM
- Kd [4]: 250 nM

B5: DOM7r-36-103 (VHH)
VHH: EVQLLESGGGLVQPGGSLRLSCAASGFTFNHYTMGWVRQAPGKGREWVSLIHPSGTVTYYADSVKGRFTTSRDNSKNTLYLQMNSLRAEDTAVYYCAKWDRKLFDHWGQGTLVTVSS
notes: as for B2
- Kd [1]: 62 nM and 65 nM
- Kd [2]: 94 nM
- Kd [3]: 100 nM and 57 nM
- Kd [4]: 270 nM

B6: DOM7r-36-104 (VHH)
VHH: EVQLLESGGGLVQPGGSLRLSCAASGFTFNHYTMGWVRQAPGKGREWVSLIHPSGTVTYYADSVKGRFTISRDNSKNTLYLQMNSLRAEDTAVYYCAKWATRGFDYWGQGTLVTVSS
notes: as for B2
- Kd [2]: 149 nM and 360 nM
- Kd [3]: 109 nM and 114 nM
- Kd [4]: 184 nM and 313 nM
- Kd [5]: 82 nM
- Kd [6]: 9 nM

B7: DOM7r-36-105 (VHH)
VHH: EVQLLESGGGLVQPGGSLRLSCAASGFTFNHYTMGWVRQAPGKGREWVSLIHPSGTVTYYADSVKGRFTISRDNSKNTLYLQMNSLRAEDTAVYYCAKLGTKVFDYWGQGTLVTVSS
notes: as for B2
- Kd [1]: 284 nM and 313 nM
- Kd [3]: 170 nM

B8: DOM7r-36-106 (VHH)
VHH: EVQLLESGGGLVQPGGSLRLSCAASGFTFNHYTMGWVRQAPGKGREWVSLIHPSGTVTYYADSVKGRFTISRDNSKNTLYLQMNSLRAEDTAVYYCAKFRGRGFDYWGQGTLVTVSS
notes: as for B2
- Kd [1]: 209 nM and 124 nM
- Kd [2]: 840 nM and 1100 nM
- Kd [3]: 75 nM
- Kd [4]: 113 nM and 73 nM
- Kd [7]: 42 nM

B9: DOM7r-36-107 (VHH)
VHH: EVQLLESGGGLVQPGGSLRLSCAASGFTFNHYTMGWVRQAPGKGREWVSLIHPSGTVTYYADSVKGRFTISRDNSKNTLYLQMNSLRAEDTAVYYCAKWEKKYFDYWGQGTLVTVSS
notes: as for B2
- binding result [8]: no binding (tested: dilution series from 5 uM down to 39 nM)
- Kd [9]: 18.3 nM
- Kd [10]: 21.4 nM
- Kd [11]: 99.2 nM
- Kd [12]: 143 nM
- Kd [13]: 111 nM
- Kd [14]: 719 nM
- Kd [15]: 740 nM
- Kd [16]: 818 nM
- Kd [17]: 895 nM
- Kd [18]: 637 nM
- Kd [1]: 83.4 nM and 44.5 nM
- Kd [2]: 127 nM
- Kd [3]: 97.3 nM and 209 nM
- Kd [4]: 466 nM

B10: DOM7r-36-108 (VHH)
VHH: EVQLLESGGGLVQPGGSLRLSCAASGFTFNHYTMGWVRQAPGKGREWVSLIHPSGTVTYYADSVKGRFTTSRDNSKNTLYLQMNSLRAEDTAVYYCAKLEGRSFDYWGQGTLVTVSS
notes: as for B2
- Kd [1]: 82 nM and 67 nM
- Kd [2]: 265 nM
- Kd [4]: 37.6 nM

B11: DOM7r-92-100 (VHH)
VHH: EVQLLESGGGLVQPGGSLRLSCAASGFTFDTSSMLWVRQAPGKGLEWVSVIHQSGTPTYYADSVKGRFTISRDNSKNTLYLQMNSLRAEDTAVYYCAKFPSSRMKFDYWGQGTLVTVSS
notes: VH immunoglobulin single variable domain (dAb, AlbudAb), not a camelid VHH; tested with a myc tag; MALLS: dimer 10%, monomer 90%; also called DOM7r-92-100 myc; not shown: myc tag
- Kd [9]: 3.56 nM
- Kd [10]: 10.7 nM
- Kd [11]: 54.3 nM
- Kd [12]: 61.5 nM
- Kd [13]: 7.37 nM
- Kd [14]: 450 nM
- Kd [15]: 317 nM
- Kd [16]: 191 nM
- Kd [17]: 308 nM
- Kd [19]: 136 nM
- Kd [18]: 569 nM
- Kd [4]: 33 nM and 90 nM

B12: DOM7r-92-4 (VHH)
VHH: EVQLLESGGGLVQPGGSLRLSCAASGFTFDTSSMLWVRQAPGKGLEWVSVIHQSGTPTYYADSVKGRFTISRDNSKNTLYLQMNSLRAEDTAVYYCAKFPSTHGKFDYWGQGTLVTVSS
notes: VH immunoglobulin single variable domain (dAb, AlbudAb), not a camelid VHH; tested with a myc tag; also called 7r92-4 (Parent); not shown: myc tag
- Kd [1]: 260 nM and 420 nM

B13: DOM7r-92-101 (VHH)
VHH: EVQLLESGGGLVQPGGSLRLSCAASGFTFDTSSMLWVRQAPGKGLEWVSVIHQSGTPTYYADSVKGRFTISRDNSKNTLYLQMNSLRAEDTAVYYCAKFPSRKMKFDYRGQGTLVTVSS
notes: as for B2
- Kd [1]: 15 nM and 8 nM
- Kd [2]: 120 nM
- Kd [3]: 23 nM and 16 nM
- Kd [4]: 56 nM

B14: DOM7r-92-102 (VHH)
VHH: EVQLLESGGGLVQPGGSLRLSCAASGFTFDTSSMLWVRQAPGKGLEWVSVIHQSGTPTYYADSVKGRFTISRDNSKNTLYLQMNSLRAEDTAVYYCAKFPSSQFRFDYWGQGTLVTVSS
notes: as for B2
- Kd [1]: 28 nM
- Kd [2]: 32 nM
- Kd [3]: 100 nM
- Kd [4]: 280 nM

B15: DOM7r-92-103 (VHH)
VHH: EVQLLESGGGLVQPGGSLRLSCAASGFTFDTSSMLWVRQAPGKGLEWVSVIHQSGTPTYYADSVKGRFTISRDNSKNTLYLQMNSLRAEDTAVYYCAKFPSEGMNFDYWGQGTLVTVSS
notes: as for B2
- Kd [1]: 160 nM and 123 nM
- Kd [2]: 770 nM

B16: DOM7r-31-14 (VHH)
VHH: EVQLLESGGGLVQPGGSLRLSCTASGFTFRHYRMGWVRQAPGKGLEWVSWIRPDGTFTYYADSVKGRFTISRDNSKNTLYLQMNSLRAEDTAVYYCAKSYMADRFDYWGQGTLVTVSS
notes: VH immunoglobulin single variable domain (dAb, AlbudAb), not a camelid VHH; tested with a myc tag; also called 7r31-14 (Parent); not shown: myc tag
- Kd [4]: 6 nM and 12 nM and 14.2 nM

B17: DOM7r-31-100 (VHH)
VHH: EVQLLEPGGGLVQPGGSLRLSCTASGFTFRHYRMGWVRQAPGKGLEWVSWIRPDGTFTYYADSVKGRFTISRDNSKNTLYLQMNSLRAEDTAVYYCAKSYLSGTFDYWGQGTLVTVSS
notes: as for B2
- Kd [1]: 260 nM and 287 nM
- Kd [3]: 40 nM and 41 nM
- Kd [4]: 5.4 nM and 12.7 nM

B18: DOM7r-31-101 (VHH)
VHH: EVQLLESGGGLVQPGGSLRLSCTASGFTFRHYRMGWVRQAPGKGLEWVSWIRPDGTFTYYADSVKGRFTISRDNSKNTLYLQMNSLRAEDTAVYYCAKSYQAGTFDYWGQGTLVTVSS
notes: as for B2
- Kd [1]: 367 nM and 240 nM

B19: DOM7r-31-102 (VHH)
VHH: EVQLLESGGGLVQPGGSLRLSCTASGFTFRHYRMGWVRQAPGKGLEWVSWIRPDGTFTYYADSVKGRFTISRDNSKNTLYLQMNSLRAEDTAVYYCAKSYHADKFDYWGQGTLVTVSS
notes: as for B2
- Kd [1]: 158 nM and 100 nM
- Kd [3]: 67 nM and 30 nM

B20: DOM7r-31-103 (VHH)
VHH: EVQLLESGGGLVQPGGSLRLSCTASGFTFRHYRMGWVRQAPGKGLEWVSWIRPDGTFTYYADSVKGRFTISRDNSKNTLYLQMNSLRAEDAAVYYCAKSYMSGTFDYWGQGTLVTVSS
notes: as for B2
- Kd [1]: 200 nM and 95 nM
- Kd [3]: 40 nM

B21: DOM7r-31-104 (VHH)
VHH: EVQLLESGGGLVQPGGSLRLSCTASGFTFRHYRMGWVRQAPGKGLEWVSWIRPDGTFTYYADSVKGRFTISRDNSKNTLYLQMNSLRAEDTAVYYCAKSYMAGTFDYWGQGTLVTVSS
notes: as for B2
- Kd [9]: 25.9 nM
- Kd [11]: 6.09 nM
- Kd [12]: 59.5 nM
- Kd [13]: 4900 nM
- Kd [14]: 8.26 nM
- Kd [15]: 13.9 nM
- Kd [16]: 415 nM
- Kd [17]: 412 nM
- Kd [20]: 1630 nM
- Kd [19]: 1990 nM
- Kd [3]: 11.9 nM and 7.6 nM
- Kd [5]: 89.1 nM
- Kd [21]: 81 nM
